Measurements: the RNAGym collection of RNA variant scans (doi:10.7554/elife.80360)

B1: Hairpin Ribozyme (parent)
chain: GUCCUCUUUCACGUGCGCGUGAAAGAGAGAAGUGAACCAGAGAAACACACGUUGUGGUAUAUUACCUGGUA

Variants of: B1
Assay: self-cleavage, relative activity (ratio to wild type); higher = more cleavage; co-transcriptional
In the case of G13C A43G, the self-cleavage is reported as 0.144.
Variant G13C A43U has a self-cleavage of 0.0989.
With G13C A44C the self-cleavage was 0.281.
For G13C A44U, the self-cleavage was 0.137.
For G13C A59C, the self-cleavage was 0.11.
G13C A61U gave a self-cleavage of 0.161.
G13C A64C showed a self-cleavage of 0.149.
G13C A71G showed a self-cleavage of 0.823.
With G13C C16U the self-cleavage was 0.573.
G13C C18A showed a self-cleavage of 0.932.
With G13C C46A the self-cleavage was 0.137.
Work on G13C C46U yielded a self-cleavage of 0.218.
In the case of G13C C48G, the self-cleavage is reported as 0.102.
G13C C50G showed a self-cleavage of 0.278.
In the case of G13C C65A, the self-cleavage is reported as 0.726.
G13C C65G gave a self-cleavage of 0.256.
Variant G13C C66A has a self-cleavage of 0.0627.
In the case of G13C C66G, the self-cleavage is reported as 0.129.
For G13C C66U, the self-cleavage was 0.431.
For G13C G15U, the self-cleavage was 0.695.
G13C G17U showed a self-cleavage of 0.492.
G13C G19U gave a self-cleavage of 0.752.
Work on G13C G21A yielded a self-cleavage of 0.61.
G13C G27U gave a self-cleavage of 0.19.
G13C G29A gave a self-cleavage of 0.106.
G13C G32C showed a self-cleavage of 0.123.
For G13C G34A, the self-cleavage was 0.915.
For G13C G40U, the self-cleavage was 0.158.
G13C G42A gave a self-cleavage of 0.208.
In the case of G13C G51C, the self-cleavage is reported as 0.681.
Work on G13C G54A yielded a self-cleavage of 0.368.
With G13C G54C the self-cleavage was 0.161.
In the case of G13C G68A, the self-cleavage is reported as 0.219.
G13C G68C gave a self-cleavage of 0.151.
Work on G13C G69A yielded a self-cleavage of 0.214.
Variant G13C G69C has a self-cleavage of 0.199.
G13C U14A gave a self-cleavage of 0.688.
G13C U14G showed a self-cleavage of 0.688.
For G13C U20A, the self-cleavage was 0.492.
G13C U20C gave a self-cleavage of 0.785.
In the case of G13C U20G, the self-cleavage is reported as 0.531.
In the case of G13C U33A, the self-cleavage is reported as 0.0736.
Variant G13C U33G has a self-cleavage of 0.207.
With G13C U53A the self-cleavage was 0.747.
Work on G13C U55A yielded a self-cleavage of 0.196.
G13C U58A gave a self-cleavage of 0.35.
Work on G13C U58C yielded a self-cleavage of 0.869.
G13C U60A showed a self-cleavage of 0.579.
Work on G13C U63A yielded a self-cleavage of 0.173.
In the case of G13C U67C, the self-cleavage is reported as 0.126.
G13C U67G showed a self-cleavage of 0.281.
For G13U A23G, the self-cleavage was 0.675.
With G13U A26G the self-cleavage was 0.675.
Variant G13U A28G has a self-cleavage of 0.725.
With G13U A28U the self-cleavage was 0.546.
With G13U A30G the self-cleavage was 0.191.
In the case of G13U A31G, the self-cleavage is reported as 0.499.
With G13U A31U the self-cleavage was 0.109.
G13U A35U showed a self-cleavage of 0.83.
G13U A36G showed a self-cleavage of 0.65.
With G13U A39C the self-cleavage was 0.498.
G13U A39U showed a self-cleavage of 0.257.
Variant G13U A41C has a self-cleavage of 0.91.
G13U A44U showed a self-cleavage of 0.147.
G13U A45G gave a self-cleavage of 0.0663.
G13U A49C showed a self-cleavage of 0.117.
For G13U A64C, the self-cleavage was 0.267.
With G13U A64G the self-cleavage was 0.533.
In the case of G13U A64U, the self-cleavage is reported as 0.147.
Variant G13U A71C has a self-cleavage of 1.22.
Variant G13U A71G has a self-cleavage of 0.936.
G13U C16U gave a self-cleavage of 0.818.
For G13U C18A, the self-cleavage was 0.915.
G13U C18U showed a self-cleavage of 0.967.
G13U C65A gave a self-cleavage of 0.845.
For G13U C66A, the self-cleavage was 0.176.
With G13U C66G the self-cleavage was 0.11.
For G13U G15A, the self-cleavage was 0.491.
Variant G13U G15C has a self-cleavage of 0.608.
Work on G13U G17C yielded a self-cleavage of 0.494.
G13U G19C gave a self-cleavage of 0.686.
G13U G27C showed a self-cleavage of 0.19.
Variant G13U G29U has a self-cleavage of 0.147.
In the case of G13U G32C, the self-cleavage is reported as 0.232.
With G13U G51A the self-cleavage was 0.745.
In the case of G13U G54U, the self-cleavage is reported as 0.588.
Work on G13U G68C yielded a self-cleavage of 0.19.
G13U G69U showed a self-cleavage of 0.246.
In the case of G13U U33C, the self-cleavage is reported as 0.102.
G13U U33G gave a self-cleavage of 0.0972.
G13U U52C showed a self-cleavage of 0.655.
Work on G13U U53C yielded a self-cleavage of 0.477.
Variant G13U U55A has a self-cleavage of 0.263.
G13U U55C gave a self-cleavage of 0.254.
Work on G13U U62C yielded a self-cleavage of 0.291.
G13U U62G gave a self-cleavage of 0.102.
G13U U67C gave a self-cleavage of 0.211.
For U14A A22C, the self-cleavage was 0.829.
For U14A A23C, the self-cleavage was 0.789.
For U14A A23G, the self-cleavage was 0.814.
For U14A A24C, the self-cleavage was 0.703.
U14A A26U gave a self-cleavage of 0.503.
U14A A28G gave a self-cleavage of 1.2.
With U14A A35C the self-cleavage was 0.998.
Work on U14A A35G yielded a self-cleavage of 0.956.
In the case of U14A A36G, the self-cleavage is reported as 0.864.
Variant U14A A39C has a self-cleavage of 0.515.
Variant U14A A39U has a self-cleavage of 0.408.
Variant U14A A41C has a self-cleavage of 1.34.
Variant U14A A41U has a self-cleavage of 1.04.
U14A A43C gave a self-cleavage of 0.15.
With U14A A44U the self-cleavage was 0.118.
For U14A A47C, the self-cleavage was 0.482.
In the case of U14A A47U, the self-cleavage is reported as 0.143.
In the case of U14A A49U, the self-cleavage is reported as 0.13.
For U14A A59C, the self-cleavage was 0.179.
Work on U14A A64C yielded a self-cleavage of 0.254.
Variant U14A A64G has a self-cleavage of 0.589.
U14A A64U showed a self-cleavage of 0.171.
In the case of U14A A71G, the self-cleavage is reported as 1.08.
In the case of U14A C18U, the self-cleavage is reported as 0.924.
U14A C37G gave a self-cleavage of 0.295.
U14A C37U showed a self-cleavage of 0.481.
U14A C38G showed a self-cleavage of 0.0908.
Work on U14A C46A yielded a self-cleavage of 0.232.
Variant U14A C46G has a self-cleavage of 0.108.
Work on U14A C48U yielded a self-cleavage of 0.123.
Work on U14A C65G yielded a self-cleavage of 0.323.
With U14A C65U the self-cleavage was 0.292.
With U14A C66A the self-cleavage was 0.0937.
In the case of U14A G15A, the self-cleavage is reported as 1.
Variant U14A G15C has a self-cleavage of 1.06.
Work on U14A G15U yielded a self-cleavage of 1.17.
Variant U14A G17C has a self-cleavage of 0.472.
With U14A G19C the self-cleavage was 0.819.
U14A G19U gave a self-cleavage of 0.736.
Variant U14A G25A has a self-cleavage of 0.56.
Work on U14A G25U yielded a self-cleavage of 0.521.
U14A G29A showed a self-cleavage of 0.227.
U14A G42C showed a self-cleavage of 0.281.
In the case of U14A G42U, the self-cleavage is reported as 0.308.
U14A G51U gave a self-cleavage of 0.925.
With U14A G54A the self-cleavage was 0.581.
U14A G54U gave a self-cleavage of 0.471.
For U14A G56A, the self-cleavage was 0.0617.
U14A G56C showed a self-cleavage of 0.168.
Work on U14A G56U yielded a self-cleavage of 0.205.
Work on U14A G68C yielded a self-cleavage of 0.25.
In the case of U14A U20A, the self-cleavage is reported as 0.67.
With U14A U52A the self-cleavage was 1.03.
U14A U55G gave a self-cleavage of 0.179.
With U14A U58A the self-cleavage was 0.792.
U14A U58C gave a self-cleavage of 0.78.
In the case of U14A U58G, the self-cleavage is reported as 0.505.
Work on U14A U62A yielded a self-cleavage of 0.0586.
In the case of U14A U63C, the self-cleavage is reported as 0.212.
Work on U14A U67A yielded a self-cleavage of 0.188.
U14A U67C showed a self-cleavage of 0.247.
For U14A U67G, the self-cleavage was 0.277.
Variant U14A U70A has a self-cleavage of 0.863.
With U14C A23U the self-cleavage was 1.09.
In the case of U14C A28G, the self-cleavage is reported as 0.65.
U14C A30G showed a self-cleavage of 0.116.
Work on U14C A30U yielded a self-cleavage of 0.148.
Variant U14C A35C has a self-cleavage of 0.687.
With U14C A41C the self-cleavage was 1.18.
Variant U14C A41G has a self-cleavage of 0.678.
